Measured values reported in patent US20080260748A1.

Target: desmocollin 2 (DSC2) (human) (UniProt Q02487)
Test: flow cytometry on NCI-H358 cells, control human IgG

MFI (ratio of intensity to control IgG): 9.48
B1: anti-DSC2 human antibody 332 (antibody, V domains shown)
VH: QVQLQQWGAGLLKPSETLSLTCAVYGGSFSGNYWSWIRQPPGKGLEWIGEINHSGNTKYNPSLKSRVAISADTSKNQFSLKLSSVTAADTAVYYCARVPFDWFHPPGEPPFYYYYGMDVWGQGTTVTVSS
VL: HVILTQPPSVSGAPGQRVTISCTGSSSNIGAGYDVHWYQQLPGTAPKLLIYGNSNRPSGVPDRFSGSKSGTSASLAITGLQAEDEADYYCQSYDSSLSGWVFGGGTKLTVPG
